Columns and labels:
Saccharomyces cerevisiae [1] = assay: protein stability index of tFT-peptide fusion in wild type (PSI (0-1 scale)); higher = more stable (slower turnover); settings: genetic background: wild type
Description: (§1)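 MPS profiling in S. cerevisiae of two library types built from selected 12-aa C-degron peptides (IN1, IN2, LN1, LN3, VN2, R1-R5, W1-W3, Atg1 and Rpa12 C-termini): saturation mutagenesis libraries and C-terminal +1 capping libraries (13 aa). Each peptide is fused to the C-terminus of a sfGFP-mCherry timer, after a GGGS linker. Cells are FACS-sorted into 8 mCherry/sfGFP bins and sequenced. PSI runs from 0 (unstable) to 1 (stable), measured once in wild type and in the das1Δ or doa10Δ background.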

Saccharomyces cerevisiae [2] = assay: protein stability index of tFT-peptide fusion in deletion strain of DAS1 (PSI (0-1 scale)); higher = more stable (slower turnover)
Description: as §1
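Wherever protein stability index of tFT-peptide fusion in deletion strain of DAS1 is given: PSI is a weighted mean of each variant's read distribution over the sorted stability bins, computed only for variants having over 10 reads in total.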
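Wherever protein stability index of tFT-peptide fusion in wild type is given: PSI derived as read-weighted mean over the 8 sorting bins, only variants exceeding 10 total reads kept, mCherry placed adjacent to the peptide and sfGFP distal.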

Row | Sequence | protein stability index (Saccharomyces cerevisiae [1]) | protein stability index (Saccharomyces cerevisiae [2])
1 | LKILRQKMRHQN | 0.301 | 0.669
2 | LKILRQKRNHQN | 0.299 | 0.669
3 | LKILRQKTNHQN | 0.403 | 0.69
4 | LKILRQRMNHQN | 0.251 | 0.662
5 | LKIPRQKMNHQN | 0.484 | 0.679
6 | LKISRQKMNHQN | 0.323 | 0.677
7 | LKRLRQKMNHQN | 0.202 | 0.666
8 | LKTLRQKMNHQN | 0.205 | 0.672
9 | LKWLRQKMNHQN | 0.146 | 0.697
10 | LLILRQKMNHQN | 0.155 | 0.673
11 | LLIQPLPVQFLN | 0.0661 | 0.624
12 | LSVYLSCVACIN | 0.0226 | 0.145
13 | LVEYLSCVACIN | 0.247 | 0.373
14 | LVVDLSCVACIN | 0.137 | 0.367
15 | LVVLLSCVACIN | 0.0235 | 0.0371
16 | LVVYLICVACIN | 0.0186 | 0.0584
17 | LVVYLSCFACIN | 0.0181 | 0.0433
18 | LVVYLSCVACIF | 0.0136 | 0.029
19 | LVVYLSCVACII | 0.0175 | 0.0431
20 | LVVYLSCVACINQ | 0.187 | 0.207
21 | LVVYLSCVACIW | 0.0175 | 0.0367
22 | LVVYLSCVACQN | 0.0434 | 0.097
23 | LVVYLSCVAEIN | 0.0146 | 0.0269

Row | Sequence | protein stability index (Saccharomyces cerevisiae [1]) | protein stability index (Saccharomyces cerevisiae [2])
24 | LVVYLSCVAMIN | 0.0127 | 0.032
25 | LVVYLSCVASIN | 0.0148 | 0.0412
26 | LVVYLSCVAWIN | 0.0134 | 0.0302
27 | LVVYLSCVTCIN | 0.0223 | 0.0605
28 | LVVYLSLVACIN | 0.0258 | 0.0617
29 | LVVYLSPVACIN | 0.18 | 0.278
30 | LVVYLSVVACIN | 0.0255 | 0.0878
31 | LVVYYSCVACIN | 0.0106 | 0.0266
32 | PDERNHLIKLLN | 0.179 | 0.566
33 | PDKLNHLIKLLN | 0.133 | 0.609
34 | PDKRLHLIKLLN | 0.126 | 0.629
35 | PDKRNHLDKLLN | 0.574 | 0.578
36 | PDKRNHLIELLN | 0.272 | 0.702
37 | PDKRNHLIFLLN | 0.116 | 0.687
38 | PDKRNHLIHLLN | 0.0992 | 0.586
39 | PDKRNHLIKDLN | 0.628 | 0.557
40 | PDKRNHLIKLLNA | 0.13 | 0.665
41 | PDKRNHLIKLLNE | 0.564 | 0.662
42 | PDKRNHLIKLLNG | 0.17 | 0.662
43 | PDKRNHLIKLLNT | 0.144 | 0.663
44 | PDKRNHLIKLLNY | 0.16 | 0.657
45 | PDKRNHLIKLMN | 0.119 | 0.605
46 | PDKRNHLIKMLN | 0.0821 | 0.598

Row | Sequence | protein stability index (Saccharomyces cerevisiae [1]) | protein stability index (Saccharomyces cerevisiae [2])
47 | PDKRNHLIKWLN | 0.182 | 0.694
48 | PDKRNHLPKLLN | 0.148 | 0.612
49 | PDKRNHLSKLLN | 0.136 | 0.659
50 | PDKRNHLVKLLN | 0.133 | 0.585
51 | PDKRNHLYKLLN | 0.196 | 0.598
52 | PDKRNPLIKLLN | 0.42 | 0.581
53 | PDKRVHLIKLLN | 0.128 | 0.61
54 | PEKRNHLIKLLN | 0.101 | 0.608
55 | PKILRQKMNHQN | 0.194 | 0.678
56 | PKLAASFWRVVG | 0.172 | 0.691
57 | PLLAASFWRVVG | 0.157 | 0.678
58 | PMLAASFWRVVG | 0.162 | 0.702
59 | PSKAASFWRVVG | 0.139 | 0.686
60 | PSKRNHLIKLLN | 0.145 | 0.61
61 | PSLAAFFWRVVG | 0.13 | 0.691
62 | PSLAAMFWRVVG | 0.137 | 0.691
63 | PSLAARFWRVVG | 0.14 | 0.679
64 | PSLAASFDRVVG | 0.644 | 0.684
65 | PSLAASFGRVVG | 0.661 | 0.672
66 | PSLAASFKRVVG | 0.683 | 0.677
67 | PSLAASFWNVVG | 0.331 | 0.69
68 | PSLAASFWRFVG | 0.137 | 0.707
69 | PSLAASFWRNVG | 0.17 | 0.7

Row | Sequence | protein stability index (Saccharomyces cerevisiae [1]) | protein stability index (Saccharomyces cerevisiae [2])
70 | PSLAASFWRVFG | 0.367 | 0.699
71 | PSLAASFWRVKG | 0.549 | 0.664
72 | PSLAASFWRVMG | 0.144 | 0.664
73 | PSLAASFWRVVE | 0.684 | 0.696
74 | PSLAASFWRVVGN | 0.651 | 0.689
75 | PSLAASFWRVVGV | 0.674 | 0.685
76 | PSLAASFWRVVL | 0.617 | 0.724
77 | PSLAASFWRVVM | 0.282 | 0.743
78 | PSLAASFWRVVQ | 0.252 | 0.711
79 | PSLAASFWRVVT | 0.147 | 0.693
80 | PSLAASFWRYVG | 0.134 | 0.657
81 | PSLAQSFWRVVG | 0.188 | 0.699
82 | PSLIASFWRVVG | 0.12 | 0.672
83 | PSLQASFWRVVG | 0.111 | 0.633
84 | PSLYASFWRVVG | 0.0956 | 0.674
85 | RGIQPLPVQFLN | 0.112 | 0.581
86 | RLDQPLPVQFLN | 0.0831 | 0.808
87 | RLGQPLPVQFLN | 0.0875 | 0.611
88 | RLIQPIPVQFLN | 0.0323 | 0.597
89 | RLIQPKPVQFLN | 0.0691 | 0.586

— the supplement of paper PMC10724198
